Laboratory results from US20230272110A1 (LAVA THERAPEUTICS N V, published 2023).

Experiments:
[1] = target: T1, human PSMA on PSMA-positive prostate cancer cells (LNCaP, 22Rv1, VCaP, patient-derived tumor cells) (human, UniProt Q04609 1-750); assay: cell-based or functional assay
[2] = target: T1, human PSMA on PSMA-positive prostate …; assay: cell-based or functional assay; remark: listed apart in the source
[3] = target: recombinant human PSMA, biotinylated (hPSMA) (human, UniProt Q04609 44-750, biotinylated (site not stated)); assay: BLI, biotinylated hPSMA on streptavidin biosensors, antibody as analyte 3.125-200 nM; mean of n = 3, SD 1.24E-09
[4] = target: T1, human PSMA on PSMA-positive prostate …; assay: cell-based or functional assay; remark: listed apart in the source
[5] = target: T1, human PSMA on PSMA-positive prostate …; assay: FACS on PSMA-positive LNCaP cells, detection with polyclonal anti-human IgG
Protocol: To test the binding of the molecule to PSMA, a concentration range of antibody was tested for binding to the PSMA positive prostate cancer cell line LNCaP and to the antigen negative cell line PC-3. Detection was performed with a polyclonal anti-human IgG antibody.

T1 sequence (Q04609 whole entry): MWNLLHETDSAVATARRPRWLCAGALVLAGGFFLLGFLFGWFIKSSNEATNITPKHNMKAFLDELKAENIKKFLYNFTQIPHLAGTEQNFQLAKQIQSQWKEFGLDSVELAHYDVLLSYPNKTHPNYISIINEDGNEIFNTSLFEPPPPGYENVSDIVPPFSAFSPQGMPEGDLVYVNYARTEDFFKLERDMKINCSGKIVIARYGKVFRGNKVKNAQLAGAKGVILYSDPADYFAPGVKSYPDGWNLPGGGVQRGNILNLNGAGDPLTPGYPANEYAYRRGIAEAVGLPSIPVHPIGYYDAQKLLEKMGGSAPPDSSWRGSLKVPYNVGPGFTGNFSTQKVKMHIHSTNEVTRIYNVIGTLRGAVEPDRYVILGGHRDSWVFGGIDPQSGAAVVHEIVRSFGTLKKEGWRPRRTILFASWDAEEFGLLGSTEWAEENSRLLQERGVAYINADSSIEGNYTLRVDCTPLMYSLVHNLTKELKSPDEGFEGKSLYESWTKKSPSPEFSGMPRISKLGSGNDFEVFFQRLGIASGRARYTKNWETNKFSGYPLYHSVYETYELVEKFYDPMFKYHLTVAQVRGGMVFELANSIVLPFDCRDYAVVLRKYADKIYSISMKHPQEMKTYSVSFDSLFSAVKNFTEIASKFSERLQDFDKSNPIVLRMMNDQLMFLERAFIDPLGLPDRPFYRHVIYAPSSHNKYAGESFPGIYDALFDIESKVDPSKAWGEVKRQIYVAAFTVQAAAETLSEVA
Sequence of recombinant human PSMA, biotinylated (hPSMA) (Q04609 44-750 limits assumed): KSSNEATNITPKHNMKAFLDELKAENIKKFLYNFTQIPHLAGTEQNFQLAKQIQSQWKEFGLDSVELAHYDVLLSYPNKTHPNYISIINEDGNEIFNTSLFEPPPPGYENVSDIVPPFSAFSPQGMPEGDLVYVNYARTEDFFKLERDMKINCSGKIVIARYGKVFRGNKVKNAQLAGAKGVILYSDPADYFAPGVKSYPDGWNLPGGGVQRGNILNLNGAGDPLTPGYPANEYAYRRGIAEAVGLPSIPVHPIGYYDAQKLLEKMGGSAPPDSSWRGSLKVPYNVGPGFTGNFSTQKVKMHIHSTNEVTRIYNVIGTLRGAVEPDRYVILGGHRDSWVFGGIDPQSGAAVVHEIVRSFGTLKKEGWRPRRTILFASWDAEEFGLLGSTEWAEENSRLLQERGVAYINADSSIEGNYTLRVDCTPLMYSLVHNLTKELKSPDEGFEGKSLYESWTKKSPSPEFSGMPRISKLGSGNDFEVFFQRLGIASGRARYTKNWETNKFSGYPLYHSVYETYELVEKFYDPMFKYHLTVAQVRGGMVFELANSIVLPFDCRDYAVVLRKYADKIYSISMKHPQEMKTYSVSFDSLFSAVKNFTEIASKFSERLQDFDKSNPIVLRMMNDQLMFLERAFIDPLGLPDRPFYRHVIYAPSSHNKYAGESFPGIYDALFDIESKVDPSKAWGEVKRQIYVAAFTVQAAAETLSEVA

| Binder | Mean EC50, cytotoxicity after 24 hours (CytoTox-Glo), 22Rv1, E:T 1:1 [1] | Mean EC50, cytotoxicity after 24 hours (CytoTox-Glo), LNCaP, E:T 1:1 [1] | Mean EC50, cytotoxicity after 24 hours (CytoTox-Glo), VCaP, E:T 1:1 [1] | Mean EC50, degranulation (CD107a) after 4 hours, 22Rv1, E:T 1:1 [1] | Mean EC50, degranulation (CD107a) after 4 hours, LNCaP, E:T 1:1 [1] | Mean EC50, degranulation (CD107a) after 4 hours, VCaP, E:T 1:1 [1] | Mean EC50, Vγ9Vδ2-T cell cytotoxicity of LNCaP cells, 24 h, E:T 1:1 [2] | Mean EC50, Vγ9Vδ2-T cell cytotoxicity of LNCaP cells, 24 h, E:T 1:10 [2] | Kd [3] | EC50, Vγ9Vδ2 T cell mediated cytotoxicity of LNCaP cells, 24 h, E:T 1:1 [4] | EC50 for cytotoxicity, LNCaP target cells, 24 h, 7AAD in FACS, E:T 1:1 [4] | EC50 [5] |
| --- | --- | --- | --- | --- | --- | --- | --- | --- | --- | --- | --- | --- |
| LV1050-Fc x 5C8var1-Fc (bispecific antibody, V domains shown, Knob-into-hole heterodimer of two VHH-Fc chains; also called 5C8var1-Fc x LV1050-Fc; lead bispecific antibody) V domain 1: EVQLVESGGGLVQPGGSLRLSCAASRFMISEYSMHWVRQAPGKGLEWVSTINPAGTTDYADSVKGRFTISRDNAKNTLYLQMNSLRAEDTAVYYCDGYGYRGQGTQVTVSS V domain 2: EVQLLESGGGSVQPGGSLRLSCAASGRPFSNYAMSWFRQAPGKEREFVSAISWSGGSTSYADSVKGRFTISRDNSKNTLYLQMNSLRAEDTAVYYCAAQFSGADYGFGRLGIRGYEYDYWGQGTQVTVSS | 0.013 nM | 0.017 nM | 0.015 nM | 0.029 nM | 0.016 nM | 0.028 nM | 0.017 nM | 0.0099 nM | 31.6 nM | 0.0105 nM | 0.0094 nM | 7.3 nM |
| LV1050-5C8var1 (bispecific antibody) EVQLVESGGGLVQPGGSLRLSCAASRFMISEYSMHWVRQAPGKGLEWVSTINPAGTTDYADSVKGRFTISRDNAKNTLYLQMNSLRAEDTAVYYCDGYGYRGQGTQVTVSSGGGGSEVQLLESGGGSVQPGGSLRLSCAASGRPFSNYAMSWFRQAPGKEREFVSAISWSGGSTSYADSVKGRFTISRDNSKNTLYLQMNSLRAEDTAVYYCAAQFSGADYGFGRLGIRGYEYDYWGQGTQVTVSSAAAEPEA |  |  |  |  |  |  |  |  |  | 0.0022 nM | 0.0019 nM |  |
| LV1044-5C8 (bispecific antibody) EVQLVESGGGLVQPGGSLTLSCAASRFMISEYSMHWVRQAPGKGLEWVSTINPAGTTDYAESVKGRFTISRDNAKNTLYLQMNSLKPEDTAVYYCDGYGYRGQGTQVTVSSGGGGSEVQLVESGGGLVQAGGSLRLSCAASGRPFSNYAMGWFRQAPGKEREFVAAISWSGGSTSYADSVKGRFTISRDNAKNTVYLQMNSPKPEDTAIYYCAAQFSGADYGFGRLGIRGYEYDYWGQGTQVTVSS |  |  |  |  |  |  |  |  |  | 0.0016 nM | 0.0019 nM |  |
